Experimental data: paper PMC4493278 (Cell Research, 2015)
Substitutions are numbered along the chain they refer to. In names and notes the source's numbering stands. Several values for one entry are separate records, joined by “and”; a condition that tells them apart may be missing. Equal entries are not always repeated. Where two headings read alike, the source gives them in different places. Values belong to the molecule of their own block, whether it stands above or below them.

What was measured:
[1] = target: Moesin FERM domain (UniProt P26038)
Moesin FERM domain, sequence (P26038 2-295): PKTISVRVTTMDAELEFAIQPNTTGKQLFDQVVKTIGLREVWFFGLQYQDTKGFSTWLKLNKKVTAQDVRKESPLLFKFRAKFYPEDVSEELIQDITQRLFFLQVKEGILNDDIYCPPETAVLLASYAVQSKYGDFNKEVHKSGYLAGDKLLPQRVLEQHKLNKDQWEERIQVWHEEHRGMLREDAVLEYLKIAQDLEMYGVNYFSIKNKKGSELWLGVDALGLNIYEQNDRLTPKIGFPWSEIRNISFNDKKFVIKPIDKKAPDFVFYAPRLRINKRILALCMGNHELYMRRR

[2] = target: T1, Merlin FERM domain (Merlin-FERM, residues 1-320) (human, UniProt P35240 1-320); test: crystal structure
T1 sequence (looked up): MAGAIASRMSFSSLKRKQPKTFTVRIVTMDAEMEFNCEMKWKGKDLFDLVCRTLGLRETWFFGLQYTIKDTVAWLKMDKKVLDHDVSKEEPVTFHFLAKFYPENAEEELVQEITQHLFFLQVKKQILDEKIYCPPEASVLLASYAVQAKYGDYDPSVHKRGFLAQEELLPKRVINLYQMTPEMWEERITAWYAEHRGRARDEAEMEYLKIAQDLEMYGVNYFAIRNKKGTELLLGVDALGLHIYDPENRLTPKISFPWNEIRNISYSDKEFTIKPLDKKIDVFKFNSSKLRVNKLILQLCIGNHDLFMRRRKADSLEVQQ

[3] = target: T2, S518A-Merlin (human, UniProt P35240 20-595, S518A); test: pull-down
T2 sequence (looked up): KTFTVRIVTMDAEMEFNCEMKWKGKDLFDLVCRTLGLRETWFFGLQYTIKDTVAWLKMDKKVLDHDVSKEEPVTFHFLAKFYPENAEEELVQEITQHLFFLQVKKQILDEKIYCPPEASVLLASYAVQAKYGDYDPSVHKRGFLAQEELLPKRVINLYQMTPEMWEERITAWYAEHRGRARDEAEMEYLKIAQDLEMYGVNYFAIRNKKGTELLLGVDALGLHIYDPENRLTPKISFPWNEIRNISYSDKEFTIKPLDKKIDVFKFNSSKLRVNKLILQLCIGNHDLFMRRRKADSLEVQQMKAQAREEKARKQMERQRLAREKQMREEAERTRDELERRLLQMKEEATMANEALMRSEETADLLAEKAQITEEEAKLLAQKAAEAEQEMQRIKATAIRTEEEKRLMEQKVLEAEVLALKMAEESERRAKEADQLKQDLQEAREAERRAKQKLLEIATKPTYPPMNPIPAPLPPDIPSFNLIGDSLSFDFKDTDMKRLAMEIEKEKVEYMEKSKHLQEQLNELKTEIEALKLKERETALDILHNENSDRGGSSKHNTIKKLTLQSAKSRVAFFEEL

[4] = target: T1, Merlin FERM domain (Merlin-FERM, …); test: ITC
[5] = target: T1, Merlin FERM domain (Merlin-FERM, …)
[6] = target: T3, S518D-Merlin (human, UniProt P35240 20-595, S518D); test: ITC
T3 sequence (looked up): T2 sequence (looked up) with A499D

[7] = target: entire C-terminal half of Merlin (human); test: SEC

Molecule: PKFGTHHKALQEIRNSLLPFANETSSSRSPSE (domain or fragment, mouse, UniProt Q8BYR2 69-100, looked up) [Lats1 FERM-binding domain (Lats1-FBD, residues 69-100)]
binding result [2]: binds

B1: N-terminus of Lats1 (Lats1-NT, residues 1-153) (domain or fragment, mouse, UniProt Q8BYR2 1-153, looked up)
chain: MKRGEKPEGYRQMRPKTFPASNYPGSSRQMLQEIRESLRNLSKPSDASKAEHNLNKMSTEDPRQVRNPPKFGTHHKALQEIRNSLLPFANETSSSRSPSEVNPQMFQDLQAAGFDEDMVIQALQKTNNRSIEAAVEFISKMSYQDPRREQMSA
Kd [4]: ~1400 nM

B2: Merlin-CTD-S518D (domain or fragment, human, UniProt P35240 507-595, looked up)
chain: FDFKDTDMKRLDMEIEKEKVEYMEKSKHLQEQLNELKTEIEALKLKERETALDILHNENSDRGGSSKHNTIKKLTLQSAKSRVAFFEEL
Kd [5]: ~4000 nM

B3: Merlin-CTD bearing S518D/A585W substitutions (domain or fragment, human, UniProt P35240 507-595, looked up)
chain: B2 chain with A79W
binding result [2]: binds

B4: Merlin C-terminal tail domain (Merlin-CTD, residues 507-595) (domain or fragment, human, UniProt P35240 507-595, looked up)
chain: B2 chain with D12S
Kd [5]: ~3000 nM and ~4000 nM

The next lines start with the values.

Kd [1]: 16 nM
Molecule: Moesin tail domain (domain or fragment)

binding result [3]: binds
Molecule: PKFGTHHKALQEIRNSLLPFANETSSSRSPSE (domain or fragment, mouse, UniProt Q8BYR2 69-100, looked up) [GST-tagged Lats1-FBD]

Kd [4]: ~80 nM
binding result [6]: binds
Molecule: ILDFNISLAMAKERAHQKRSSKRAPQMDWSKKNELFSNL (domain or fragment, human, UniProt O14745 320-358, looked up) [EBP50 C-terminal tail (EBP50-CT, residues 320-358)]

binding result [2]: binds
Molecule: PKFGPYQKALREIRYSLLPFANESGTSAAAEV (domain or fragment, human, UniProt Q9NRM7 68-99, looked up) [Lats2 FERM-binding domain (Lats2-FBD, residues 68-99)]

stoichiometry N [7]: 1
B5: elongated α-helix-rich region of AMOT (residues 404-728 of AMOT-p130) (domain or fragment)
chain: ADPFAMVSRAQQMVEILSDENRNLRQELDGCYEKVARLQKVETEIQRVSEAYENLVKSSSKREALEKAMRNKLEGEIRRMHDFNRDLRDRLETANKQLAEKEYEGSEDTRKTISQLFAKHKENQREKEKLEAELATARSTNEDQRRHIEIRDQALSNAQAKVVKLEEELKKKQVYVDKVEKMQQALVQLQAACEKREQLEHRLRTRLERELESLRIQQRQGNSQPTNASEYNAAALMELLREKEERILALEADMTKWEQKYLEENVMRHFALDAAATVAAQRDTTVISHSPNTSYDTALEARIQKEEEEILMANKRCLDMEGRIK
